{"source": "patent US20240116985A1", "about": "(published 2024)", "key": {"[1]": {"target": "T1, B-cat-Halo (UniProt P35222 1-781)", "T1 sequence (looked up)": "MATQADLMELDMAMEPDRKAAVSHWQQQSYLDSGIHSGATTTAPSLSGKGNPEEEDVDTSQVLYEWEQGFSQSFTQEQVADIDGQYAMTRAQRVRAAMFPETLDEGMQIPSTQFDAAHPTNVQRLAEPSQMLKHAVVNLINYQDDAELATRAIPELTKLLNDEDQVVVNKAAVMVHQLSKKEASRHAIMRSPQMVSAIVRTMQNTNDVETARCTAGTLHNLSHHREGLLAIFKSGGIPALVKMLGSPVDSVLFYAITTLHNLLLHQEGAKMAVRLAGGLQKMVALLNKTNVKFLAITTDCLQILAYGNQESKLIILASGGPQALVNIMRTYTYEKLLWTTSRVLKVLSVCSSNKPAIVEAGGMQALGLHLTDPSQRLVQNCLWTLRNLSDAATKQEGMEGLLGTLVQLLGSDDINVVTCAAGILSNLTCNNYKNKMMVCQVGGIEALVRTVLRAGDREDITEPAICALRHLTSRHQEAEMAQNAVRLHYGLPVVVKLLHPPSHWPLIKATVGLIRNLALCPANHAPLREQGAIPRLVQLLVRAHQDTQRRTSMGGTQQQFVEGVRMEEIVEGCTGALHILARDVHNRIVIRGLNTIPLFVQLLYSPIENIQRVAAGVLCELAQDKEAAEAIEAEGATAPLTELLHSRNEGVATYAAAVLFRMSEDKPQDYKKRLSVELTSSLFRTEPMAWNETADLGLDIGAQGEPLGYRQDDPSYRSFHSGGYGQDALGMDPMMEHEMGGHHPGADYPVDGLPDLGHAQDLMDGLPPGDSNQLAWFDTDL", "test": "cell-based or functional assay"}, "[2]": {"target": "T2, beta-catenin (endogenous, DLD1 TCF/LEF luciferase reporter cells) (UniProt P35222 1-781)", "T2 sequence (looked up)": "T1 sequence (looked up)", "test": "cell-based or functional assay"}, "[3]": {"target": "T3, full-length beta-Catenin (Uniprot ID P35222) (Homo sapiens (Human), UniProt P35222 1-781)", "T3 construct": "The FP protocol says full-length beta-Catenin (Uniprot ID P35222); also called bCat; B-Catenin", "T3 sequence": "T1 sequence (looked up)", "test": "fluorescence polarization competition; full-length beta-catenin, competitor 5FAM-TCF4(10-53) probe", "summary_of_the_method": "(§1)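 Plate incubated 60 minutes at 20° C. protected from light before reading. Concentrations given are final.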"}, "[4]": {"target": "T4, beta-catenin in DLD1 TCF/LEF luciferase reporter cells (UniProt P35222 1-781)", "T4 sequence (looked up)": "T1 sequence (looked up)", "test": "cell-based or functional assay"}, "[5]": {"target": "T5, B-cat-Halo (beta-catenin HaloTag NanoBRET construct expressed in HEK293 cells) (UniProt P35222 1-781)", "T5 sequence (looked up)": "T1 sequence (looked up)", "test": "cell-based or functional assay"}, "[6]": {"target": "T6, beta-catenin in DLD1 TCF/LEF luciferase reporter cells (UniProt P35222 1-781)", "T6 sequence (looked up)": "T1 sequence (looked up)", "test": "cell-based or functional assay", "remark": "listed apart in the source"}, "[7]": {"target": "B-cat-Halo (beta-catenin HaloTag fusion expressed in HEK293 cells) (UniProt P35222 1-781)", "test": "NanoBRET Abs IC50 in HEK293 cells; Bcat-Halo / TCF4-Luc engagement, competitor TCF4-Luc"}, "[8]": {"target": "T7, full-length beta-Catenin (Uniprot ID P35222) (Homo sapiens (Human), UniProt P35222 2-781)", "T7 construct": "also called bCat; B-Catenin", "T7 sequence": "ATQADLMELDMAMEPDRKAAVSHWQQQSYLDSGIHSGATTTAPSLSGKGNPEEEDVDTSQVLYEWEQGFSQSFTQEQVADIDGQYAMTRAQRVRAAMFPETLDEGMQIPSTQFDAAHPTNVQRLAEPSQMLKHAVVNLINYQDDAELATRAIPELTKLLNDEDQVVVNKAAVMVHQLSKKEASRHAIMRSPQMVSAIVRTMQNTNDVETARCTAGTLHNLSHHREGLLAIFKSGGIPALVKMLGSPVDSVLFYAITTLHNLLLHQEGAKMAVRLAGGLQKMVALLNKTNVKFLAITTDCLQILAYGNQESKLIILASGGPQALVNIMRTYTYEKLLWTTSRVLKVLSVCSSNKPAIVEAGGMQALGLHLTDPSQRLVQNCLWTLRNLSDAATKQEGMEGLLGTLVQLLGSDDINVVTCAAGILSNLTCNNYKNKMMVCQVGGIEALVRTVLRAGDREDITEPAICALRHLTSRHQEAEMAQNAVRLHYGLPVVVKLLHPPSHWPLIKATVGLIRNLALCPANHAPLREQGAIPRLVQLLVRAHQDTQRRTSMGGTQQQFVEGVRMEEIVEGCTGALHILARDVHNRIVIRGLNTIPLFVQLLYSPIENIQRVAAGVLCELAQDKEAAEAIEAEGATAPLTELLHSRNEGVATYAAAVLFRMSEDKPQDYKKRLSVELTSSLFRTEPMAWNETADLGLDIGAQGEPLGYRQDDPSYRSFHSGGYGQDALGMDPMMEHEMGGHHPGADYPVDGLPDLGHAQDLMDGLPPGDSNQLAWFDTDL", "test": "fluorescence polarization competition; full-length beta-catenin, competitor 5FAM-TCF4(10-53) probe", "summary_of_the_method": "as §1"}, "[9]": {"target": "T8, beta-catenin (in DLD1 TCF/LEF luciferase reporter cells) (UniProt P35222 1-781)", "T8 sequence (looked up)": "T1 sequence (looked up)", "test": "cell-based or functional assay"}, "[10]": {"target": "T9, B-cat-Halo (UniProt P35222 1-781)", "T9 sequence (looked up)": "T1 sequence (looked up)", "test": "cell-based or functional assay", "remark": "listed apart in the source"}}, "note": "Starred links: 1 amine or outer side, 2 acyl side, 3 side chain; linkers in the order of their positions; H or OH if unused. Positions of bridges follow the written chain, without caps; N, C: chain ends. Non-standard residues stand in square brackets, D forms with d. Primed or numbered codes have the meaning given here. PyrS2″ = (S)-3-amino-1-((pent-4-en-1-yloxy)carbonyl)pyrrolidine-3-carboxylic acid (stapling residue), C=CCCCOC(=O)N1CC[C@@](N[*:1])(C(=O)[*:2])C1; B5(16) = 2-amino-2-(pent-4-en-1-yl)hept-6-enoic acid = 2,2-bis(4-pentenyl)glycine (stitching residue), C=CCCCC(CCCC=C)(N[*:1])C(=O)[*:2]; B5(4) = 2,2-bis(4-pentenyl)glycine = 2-amino-2-(pent-4-en-1-yl)hept-6-enoic acid (stitching residue), C=CCCCC(CCCC=C)(N[*:1])C(=O)[*:2]; B5(5) = 2,2-bis(4-pentenyl)glycine, 2-amino-2-(pent-4-en-1-yl)hept-6-enoic acid (stitching residue), C=CCCCC(CCCC=C)(N[*:1])C(=O)[*:2]; PyrS2 = (S)-3-amino-1-((pent-4-en-1-yloxy)carbonyl)pyrrolidine-3-carboxylic acid, C=CCCCOC(=O)N1CC[C@@](N[*:1])(C(=O)[*:2])C1; MePpzAsn = (S)-2-amino-4-(4-methylpiperazin-1-yl)-4-oxobutanoic acid, CN1CCN(C(=O)C[C@H](N[*:1])C(=O)[*:2])CC1; B5(3) = 2,2-bis(4-pentenyl)glycine (stitching residue), C=CCCCC(CCCC=C)(N[*:1])C(=O)[*:2]; 2COOHF″ = O=C([C@H](Cc1ccccc1C(=O)[*:3])N[*:1])[*:2]; Phe(3-CF3) = N[C@@H](Cc1cccc(C(F)(F)F)c1)C(=O)O; Phe(3-COOH) = N[C@@H](Cc1cccc(C(=O)O)c1)C(=O)O; 2F3MeF = Cc1cccc(C[C@H](N[*:1])C(=O)[*:2])c1F; Phe(2-Cl) = N[C@@H](Cc1ccccc1Cl)C(=O)O; Bta = N[C@@H](Cc1csc2ccccc12)C(=O)O; αAllylPro = C=CC[C@@]1(C(=O)O)CCCN1; tBuAla = CC(C)(C)C[C@H](N)C(=O)O; 3Thi = N[C@@H](Cc1ccsc1)C(=O)O; Thr(ol) = C[C@@H](O)[C@H](N)CO; PyrS2(4) = not defined here", "data": [{"binder": "Ac-[αAllylPro]D[tBuAla][B5(3)]D[Phe(3-COOH)]AAFL[PyrS2″][2F3MeF][Bta][MePpzAsn]-NH2 (staple 1-4, 4-11)", "note": "[I-1612]", "values": [{"measurement": "NanoBRET Abs IC50", "setting": "[1]", "result": 5.3, "unit": "µM"}, {"measurement": "DLD1 4% Abs IC50", "setting": "[2]", "result": 4, "unit": "µM"}]}, {"binder": "Ac-[αAllylPro]DF[B5(4)]DDAAFS[PyrS2][Phe(2-Cl)][Bta]S-NH2 (staple 1-4, 4-11)", "note": "[I-1051]", "values": [{"measurement": "EC50", "setting": "[3]", "result": 0.014, "unit": "µM"}, {"measurement": "DLD1 reporter assay Abs IC50", "setting": "[4]", "result": "> 20", "unit": "µM"}, {"measurement": "NanoBRET Abs IC50", "setting": "[5]", "result": "> 20", "unit": "µM"}]}, {"binder": "Ac-[αAllylPro]D[tBuAla][B5(16)]D[2COOHF″]AAFL[PyrS2(4)][3Thi][Bta]S-NH2 (staple 1-4, 4-11; not fully specified; reading uncertain)", "note": "[I-1667]", "values": [{"measurement": "DLD1 4% Abs IC50", "setting": "[6]", "result": 1.3, "unit": "µM"}]}, {"binder": "Ac-[αAllylPro]D[tBuAla][B5(5)]DTAA[Phe(3-CF3)]T[PyrS2″]F[Bta]S-NH2 (staple 1-4, 4-11)", "note": "[I-1268: Ac-PL3-Asp-Npg-B5-Asp-Thr-Ala-Ala-3F3MeF-Thr-PyrS2-Phe-BztA-Ser-NH2]", "values": [{"measurement": "IC50", "setting": "[7]", "result": 28.4, "unit": "µM"}]}, {"binder": "Ac-[αAllylPro]DF[B5(4)]DDLLFT[PyrS2″][Phe(2-Cl)][Bta]S-NH2 (staple 1-4, 4-11, '2C1F' is printed for 2ClF)", "note": "[I-1158]", "values": [{"measurement": "IC50", "setting": "[8]", "result": 0.168, "unit": "µM"}]}, {"binder": "Ac-[αAllylPro]D[tBuAla][B5(4)]DDAAFL[PyrS2][3Thi][Bta][Thr(ol)] (staple 1-4, 4-11)", "note": "[I-1302]", "values": [{"measurement": "DLD1 4% Abs IC50 (uM); TCF/LEF luciferase reporter in DLD1 cells", "setting": "[9]", "result": 4, "unit": "µM"}, {"measurement": "NanoBRET Abs IC50 (uM); B-cat-Halo / TCF4-Luc in HEK293 cells", "setting": "[10]", "result": 21.4, "unit": "µM"}]}]}
